The results in this text go back to patent publication US20250326842A1 (BEIGENE SWITZERLAND, published 2025).

Experiment [1] has as its target T1, human PVRIG expressed on cells (human, UniProt Q6DKI7 41-326).
T1 construct: Jurkat cells engineered to express human PVRIG; also called hPVRIG-Jurkat; native human PVRIG
T1 sequence: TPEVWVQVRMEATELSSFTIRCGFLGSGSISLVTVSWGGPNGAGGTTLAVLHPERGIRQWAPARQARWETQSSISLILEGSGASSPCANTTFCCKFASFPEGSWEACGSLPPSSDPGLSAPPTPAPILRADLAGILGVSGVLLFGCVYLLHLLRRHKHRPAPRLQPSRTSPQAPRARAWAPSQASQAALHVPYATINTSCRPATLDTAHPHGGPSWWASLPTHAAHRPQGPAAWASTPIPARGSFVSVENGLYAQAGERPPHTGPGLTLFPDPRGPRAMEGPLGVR
Nature of the experiment: flow cytometry on Jurkat cells expressing human PVRIG, anti-hFc-AF647 detection. As for the experimental part: To evaluate the binding activity of anti-PVRIG antibodies to native PVRIG on living cells, Jurkat cells were engineered to express human PVRIG. Jurkat cells expressing human PVRIG were seeded in 96 well plates, and were incubated with serially diluted anti-PVRIG antibodies. […] EC50 values for dose dependent binding to human native PVRIG were determined by fitting the dose response data to the four-parameter logistic model with GraphPad Prism™.

The target of experiment [2] is T2, human PVRIG recombinant protein (human, UniProt Q6DKI7 41-171).
T2 construct: also called human PVRIG protein; recombinant human antigen PVRIG
T2 sequence: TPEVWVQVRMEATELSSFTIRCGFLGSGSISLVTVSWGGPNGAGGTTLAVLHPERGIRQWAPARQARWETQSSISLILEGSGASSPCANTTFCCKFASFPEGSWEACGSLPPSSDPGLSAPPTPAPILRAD
Nature of the experiment: SPR, antibody captured via anti-human Fc, human PVRIG analyte. An excerpt:
For affinity determination, antibodies were captured by anti-human Fe antibodies, and used in the affinity assay based on surface plasmon resonance (SPR) technology. […] Rmax represents the maximal feasible SPR signal generated by an interaction between a ligand-analyte pair and is represented in response units (RU).

Experiment [3] addresses T3, hPVRIG-ECD-his (human, UniProt Q6DKI7 41-171).
T3 construct: Acrobiosystems PVG-H52H4; also called hPVRIG-His; human PVRIG-His; not shown: His tag
T3 sequence: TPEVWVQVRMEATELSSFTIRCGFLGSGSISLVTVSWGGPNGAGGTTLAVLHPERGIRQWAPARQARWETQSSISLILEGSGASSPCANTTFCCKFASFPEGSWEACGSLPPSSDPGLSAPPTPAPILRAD
Nature of the experiment: blocking ELISA: hPVRIG-His coated, antibody mixed with PVRL2-biotin at 1 ug/mL; % inhibition of PVRL2 binding.

Experiment [4] addresses T3, hPVRIG-ECD-his. Nature of the experiment: competition ELISA, antibody against PVRL2 on coated human PVRIG.
Experiment [5] has as its target T1, human PVRIG expressed on cells. Nature of the experiment: FACS on human PVRIG-expressing cells.
The target in experiment [6] is T2, human PVRIG recombinant protein. As to the kind of experiment: ELISA, chimeric antibody on recombinant human PVRIG.
For experiment [7] the target is unchanged. As to the kind of experiment: SPR, antibody captured via anti-human Fc, human PVRIG analyte. Here is the method:
Chimeric anti-PVRIG antibodies were generated in human IgG1 format and characterized for binding kinetics by surface plasmon resonance (SPR) assays using BIAcore™ T-200 (GE Life Sciences). […] Then a serial dilution of human or Cyno PVRIG protein was flowed over the chip surface and changes in surface plasmon resonance signals were analyzed to calculate the association rates (kₒₙ) and dissociation rates (koff) by using the one-to-one Langmuir binding model (BIA Evaluation Software, GE Life Sciences). The equilibrium dissociation constant (KD) was calculated as the ratio koff/kₒₙ.
This is another data set of the same source.

Experiment [8] addresses T1, human PVRIG expressed on cells. Nature of the experiment: flow cytometry on Jurkat cells expressing human PVRIG, anti-hFc-AF647 detection. As for the experimental part: To evaluate the binding activity of anti-PVRIG antibodies to native human PVRIG on living cells, Jurkat cells were engineered to express human PVRIG. Jurkat cells expressing human PVRIG were seeded in 96 well plates, and were incubated with serially diluted anti-PVRIG antibodies. […] EC50 values for dose dependent binding to human native PVRIG were determined by fitting the dose response data to the four-parameter logistic model with GraphPad Prism™.
This is another data set of the same source.

In experiment [9] the target is T4, Cyno PVRIG expressed on HEK293 cells (cynomolgus monkey).
T4 construct: also called native Cyno PVRIG
T4 chain: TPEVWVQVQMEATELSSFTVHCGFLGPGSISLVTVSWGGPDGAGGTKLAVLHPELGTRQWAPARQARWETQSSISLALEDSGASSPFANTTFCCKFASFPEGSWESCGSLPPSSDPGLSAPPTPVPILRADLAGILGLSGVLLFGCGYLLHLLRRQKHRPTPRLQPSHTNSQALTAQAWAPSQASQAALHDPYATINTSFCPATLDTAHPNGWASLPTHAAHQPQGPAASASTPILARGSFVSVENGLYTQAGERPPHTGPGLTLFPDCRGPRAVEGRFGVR
As to the kind of experiment: flow cytometry on 293T cells expressing cyno PVRIG, anti-hFc-AF647 detection.

Experiment [10] has as its target T2, human PVRIG recombinant protein. As to the kind of experiment: SPR, antibody captured via anti-human Fc, human PVRIG analyte. An excerpt:
For affinity determination, antibodies were captured by anti-human Fc antibodies, and used in the affinity determination based on surface plasmon resonance (SPR) technology.
This is another data set of the same source.

Experiment [11] addresses T3, hPVRIG-ECD-his. Nature of the experiment: blocking ELISA: hPVRIG-His coated, antibody mixed with PVRL2-biotin at 1 ug/mL; % inhibition of PVRL2 binding. The source holds these as a separate data set.

Read-outs that look alike come from different tables or passages of the source.

B1: BGA121 (antibody, V domains shown)
VH: QVQLVQSGAEVKKPGASVKVSCKASGYTFTDYAMHWVRQAPGQSLEWMGVVLTHNDNTNYNQKFKARVTMTVDTSASTAYMELSSLRSEDTAVYYCAREVYYDFDDGNYFPMDYWGQGTLVTVSS
VL: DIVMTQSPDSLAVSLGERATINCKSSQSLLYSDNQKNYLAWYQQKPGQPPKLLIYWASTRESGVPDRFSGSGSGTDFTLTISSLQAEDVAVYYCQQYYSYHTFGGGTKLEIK
notes: Humanized BGA12
For B1, in experiment [1], the 50% effective concentration (EC50 (read off the curve)) is approximately 0.007 µg/mL. In experiment [2], the Kd was found to be 0.0524 nM, the koff turned out to be 0.00122 s⁻¹ and the kon was determined as 2.33e+07 M⁻¹ s⁻¹. For the same molecule, the “IC50 (read off the curve)” value in [3] was approximately 0.6 µg/mL.

B2: BGA122 (antibody, V domains shown)
VH: QVQLVQSGAEVKKPGASVKVSCKASGYTFTDYAMHWVRQAPGQSLEWMGVVLTHNDNTNYNQKFKARVTMTVDTSASTAYMELSSLRSEDTAVYYCAREVYYDFDDGNYFPMDYWGQGTLVTVSS
VL: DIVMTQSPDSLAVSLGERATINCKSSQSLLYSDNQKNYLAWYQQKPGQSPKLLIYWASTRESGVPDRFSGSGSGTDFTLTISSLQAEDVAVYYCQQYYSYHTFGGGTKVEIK
notes: Humanized BGA12; also called BGA122-WT
B2: the “EC50 (read off the curve)” value in experiment [1] was approximately 0.007 µg/mL. In experiment [2], the Kd is 0.0488 nM, the koff turned out to be 0.00199 s⁻¹ and the kon is 4.09e+07 M⁻¹ s⁻¹. Besides, in experiment [3], the “IC50 (read off the curve)” value was approximately 0.6 µg/mL.

B3: BGA12 (antibody, V domains shown)
VH: QVQLQQSGPEVVRPGVSVKISCKGSGYTFTDYAMHWVKQSHGKSLEWIGVVLTHNDNTNYNQKFKAKATMTVDRSSSTAYMELARLTSEDSAIYYCAREVYYDFDDGNYFPMDYWGQGTSVTVSS
VL: DIVMSQSPSSLAVSVGEKVTMSCKSSQSLLYSDNQKNYLAWYQQKPGQSPKLLIYWASTRESGVPVRFTGSGSGTDFTLTISSVKAEDLAVYYCQQYYSYHTFGGGTKLEIK
As to B3, in experiment [4], the IC50 amounted to 0.15 nM and the “PVRIG/PVRL2 blocking Emax (% Inhibition)” value was 91.9%. In addition, the “EC50 (read off the curve)” value in [1] is approximately 0.007 µg/mL. Moreover, in experiment [5], a half-maximal effect (EC50) was put at 0.05 nM and the “binding Emax (MFI)” value was determined as 1180 MFI. Moreover, the EC50 in experiment [6] was 0.126 nM. Also, in experiment [2], the Kd is 0.0684 nM, the koff amounted to 0.00157 s⁻¹ and the kon worked out at 2.29e+07 M⁻¹ s⁻¹. In addition, in experiment [7], the Kd is 0.0684 nM, the koff amounted to 0.00157 s⁻¹ and the on-rate constant (kon) worked out at 2.29e+07 M⁻¹ s⁻¹. In addition, the “IC50 (read off the curve)” value in experiment [3] is approximately 0.6 µg/mL.

B4: BGA502 (antibody, V domains shown)
VH: QVQLVQSGAEVKKPGASVKVSCKASGYSFTGYFLNWVRQAPGQGLEWIGRISPYQGDTFYNQKFKGRVTMTTDKSTSTAYMELRSLRSDDTAVYYCGRSGSFTLFYALDYWGQGTLVTVSS
VL: DIVMTQSPSSLAVSLGERATINCKSSQSLFHSGNQKNYLAWYQQKPGQSPKLLIYWASTRESGVPDRFSGSGSGTDFTLTISSLQAEDVAVYYCQQYYSYPITFGQGTKLEIK
notes: Humanized BGA50
As for B4, in [8], the “EC50 (read off the curve)” value was approximately 0.01 µg/mL. In [9], the “EC50 (read off the curve)” value is approximately 0.007 µg/mL. Moreover, in experiment [10], the Kd was 0.103 nM, the koff amounted to 0.000486 s⁻¹ and the kon came out at 4.71e+06 M⁻¹ s⁻¹. For the same molecule, the “IC50 (read off the curve)” value in [11] was approximately 1 µg/mL.

B5: BGA503 (antibody, V domains shown)
VH: QVQLVQSGAEVKKPGASVKVSCKASGYSFTGYFLNWVRQAPGQGLEWIGRISPYQGDTFYNQKFKGRVTMTVDKSTSTAYMELRSLRSDDTAVYYCGRSGSFTLFYALDYWGQGTLVTVSS
VL: DIVMTQSPSSLAVSLGERATINCKSSQSLFHSGNQKNYLAWYQQKPGQSPKLLIYWASTRESGVPDRFSGSGSGTDFTLTISSLQAEDVAVYYCQQYYSYPITFGQGTKLEIK
notes: Humanized BGA50
For B5, the “EC50 (read off the curve)” value in experiment [8] is approximately 0.01 µg/mL. For the same molecule, the “EC50 (read off the curve)” value in experiment [9] was approximately 0.007 µg/mL. In addition, in experiment [10], the Kd amounted to 0.12 nM, the koff turned out to be 0.000438 s⁻¹ and the kon came to 3.66e+06 M⁻¹ s⁻¹. The “IC50 (read off the curve)” value in experiment [11] was approximately 0.8 µg/mL.

B6: BGA501 (antibody, V domains shown)
VH: QVQLVQSGAEVKKPGASVKVSCKASGYSFTGYFLNWVRQAPGQGLEWIGRISPYQGDTFYNQKFKGRVTMTTDKSTSTAYMELRSLRSDDTAVYYCGRSGSFTLFYAIDYWGQGTLVTVSS
VL: DIVMTQSPSSLAVSLGERATINCKSSQSLFHSGNQKNYLAWYQQKPGQSPKLLIYWASTRESGVPDRFSGSGSGTDFTLTISSLQAEDVAVYYCQQYYSYPITFGQGTKLEIK
notes: Humanized BGA50; also called BGA501-WT
Turning to B6, the “EC50 (read off the curve)” value in [8] was approximately 0.01 µg/mL. Moreover, the “EC50 (read off the curve)” value in [9] is approximately 0.01 µg/mL. For the same molecule, in [10], the Kd is 0.136 nM, the koff was found to be 0.000436 s⁻¹ and the kon turned out to be 3.21e+06 M⁻¹ s⁻¹. Also, in experiment [11], the “IC50 (read off the curve)” value was approximately 1 µg/mL.

B7: BGA50 (antibody, V domains shown)
VH: EVQLQQSGPEPVKPGASVKISCKASGYSFTGYFLNWVKQSHGKSLEWIGRISPYNGDTFYNQKFKGKATLTVDKSSSTAHMELLSLTSEDSAVYYCGRSGSFTLFYAMDYWGQGTSVTVSS
VL: DIVMSQSPSSLAVSVGENITMTCKSSQSLFHSGNQKNYLAWYQQKPGQSPKLLIYWASTRESGVPDRFTGSGSETDFTLTISSVKAEDLAVYFCQQYYSYPITFGAGTKLELK
notes: also called BGA50-WT
B7: in experiment [8], the “EC50 (read off the curve)” value is approximately 0.03 µg/mL. Moreover, in [4], the IC50 is 1.09 nM and the “PVRIG/PVRL2 blocking Emax (% Inhibition)” value was found to be 95.3%. Besides, in experiment [9], the “EC50 (read off the curve)” value is approximately 0.02 µg/mL. In addition, in [5], the response was half-maximal at 0.273 nM (EC50) and the “binding Emax (MFI)” value was determined as 2610 MFI. Further, the EC50 in [6] was found to be 0.105 nM. Further, in experiment [7], the Kd was 0.147 nM, the koff is 0.000652 s⁻¹ and the kon stood at 4.45e+06 M⁻¹ s⁻¹. Also, in experiment [10], the Kd was 0.0907 nM, the koff was found to be 0.000519 s⁻¹ and the kon is 5.72e+06 M⁻¹ s⁻¹. For the same molecule, the “IC50 (read off the curve)” value in experiment [11] was approximately 1 µg/mL.
